Data taken from patent publication US20120058906A1 (published 2012).
One block for each binder: values may come before it.

Columns and labels:
[1] = target: T1, rHuman CD44/Fc Chimera, CF (R&D Systems Cat#3660-CD) (human, UniProt P16070 21-220); assay: MSD ECL multi-spot plate, antigen immobilized; Fab 200 nM; blank spot 529
T1 construct: Purchased Fc chimera; not shown: Fc portion of the purchased chimera

[2] = target: T2, rHuman P-Cadherin/Fc Chimera, CF (R&D Systems Cat#861-PC) (human, UniProt P22223 108-654); assay: ECL (MSD Multi-Spot) binding assay, antigen spotted on plate; Fab 15 nM; blank spot 261;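 note: blank spot per well as comparator with Hit at signal to blank ratio of 4 or more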
T2 construct: Bought Fc chimera; also called CDH3; Fc part of the bought chimera not given

[3] = target: T3, rHuman CD44/Fc Chimera, CF (R&D Systems Cat#3660-CD) (human, UniProt P16070 21-220); assay: as above
T3 construct: Bought Fc chimera; Fc part of the bought chimera not given

[4] = target: T4, Recombinant Human DLL4 (R&D Systems Cat#1506-D4/CF) (human, UniProt Q9NR61 27-524); assay: as above
T4 construct: Bought recombinant protein; also called delta-like protein 4; rHuman DLL4

[5] = target: T5, rHuman Erythropoietin R/Fc Chimera, CF (R&D Systems Cat#963-ER) (human, UniProt P19235 25-250); assay: as above
T5 construct: Bought Fc chimera; also called EPO R/Fc; Epo R; Fc part of the bought chimera not given
T5 sequence: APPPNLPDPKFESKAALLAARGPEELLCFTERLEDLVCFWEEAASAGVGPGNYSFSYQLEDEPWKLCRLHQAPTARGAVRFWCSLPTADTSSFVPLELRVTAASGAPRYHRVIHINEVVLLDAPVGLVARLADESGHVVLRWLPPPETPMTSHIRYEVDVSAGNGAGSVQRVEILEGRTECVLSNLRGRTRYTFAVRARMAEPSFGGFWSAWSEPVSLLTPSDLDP

[6] = target: T6, rHuman Notch-1/Fc Chimera, CF (R&D Systems Cat#3647-TK) (human, UniProt P46531 19-526); assay: as above
T6 construct: Bought Fc chimera; Fc part of the bought chimera not given

[7] = target: T7, rHuman IGF-1 sR, (IGF-1 sR), CF (R&D Systems Cat#391-GR) (human, UniProt P08069 31-932); assay: MSD ECL multi-spot plate; Fab 130 nM; blank spot 1153;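 note: blank spot per well as comparator with Hit at signal to blank ratio of 4 or more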
T7 construct: also called insulin-like growth factor-1 soluble receptor; IGF-R1

[8] = target: T8, rHuman HGF R/c-MET/Fc Chimera, CF (R&D Systems Cat#358-MT/CF) (human, UniProt P08581 25-932); assay: as above
T8 construct: also called HGF R/Fc; hepatocyte growth factor receptor; Fc part of the bought chimera not given

[9] = target: T9, rHuman ErbB2/Fc Chimera, CF (R&D Systems Cat#1129-ER) (human, UniProt P04626 23-652); assay: as above
T9 construct: also called HER2/neu; human epidermal growth factor 2 receptor; Fc part of the bought chimera not given

[10] = target: T10, rHuman Notch-1/Fc Chimera, CF (R&D Systems Cat#3647-TK) (human, UniProt P46531 19-526); assay: as above
T10 construct: Fc part of the bought chimera not given

[11] = target: T11, Recombinant Human DLL4 (R&D Systems Cat#1506-D4/CF) (human, UniProt Q9NR61 27-524); assay: as above
T11 construct: also called delta-like protein 4

[12] = target: T12, rHuman CD44/Fc Chimera, CF (R&D Systems Cat#3660-CD) (human, UniProt P16070 21-220); assay: as above
T12 construct: Fc part of the bought chimera not given

[13] = target: T13, rHuman EGF R/Fc Chimera, CF (R&D Systems Cat#344-ER) (human, UniProt P00533 25-645); assay: as above
T13 construct: also called epidermal growth factor receptor; Fc part of the bought chimera not given

[14] = target: T14, rHuman Erythropoietin R/Fc Chimera, CF (R&D Systems Cat#963-ER) (human, UniProt P19235 25-250); assay: as above
T14 construct: also called EPO R/Fc; Epo R; Fc part of the bought chimera not given
T14 sequence: T5 sequence

[15] = target: T15, rHuman CD44/Fc Chimera, CF (R&D Systems Cat#3660-CD) (human, UniProt P16070 21-220); assay: ECL (MSD multi-spot), antigen on plate, Fab 50 nM;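 note: blank spot per well as comparator with Hit at signal to blank ratio of 4 or more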
T15 construct: Bought Fc chimera; not shown: Fc of the bought chimera

[16] = target: T16, rHuman HGF R/c-MET/Fc Chimera, CF (R&D Systems Cat#358-MT/CF) (human, UniProt P08581 25-932); assay: ECL (MSD multi-spot), antigen on plate, Fab 50 nM;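 note: blank spot per well as comparator with Hit at signal to blank ratio of 4 or more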
T16 construct: Bought Fc chimera; also called HGF R/Fc; not shown: Fc of the bought chimera

[17] = target: T17, rHuman EGF R/Fc Chimera, CF (R&D Systems Cat#344-ER) (human, UniProt P00533 25-645); assay: ECL (MSD multi-spot), antigen on plate, Fab 50 nM;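 note: blank spot per well as comparator with Hit at signal to blank ratio of 4 or more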
T17 construct: Bought Fc chimera; also called ErbB-1; not shown: Fc of the bought chimera

[18] = target: T18, rHuman Notch-1/Fc Chimera, CF (R&D Systems Cat#3647-TK) (human, UniProt P46531 19-526); assay: ECL (MSD multi-spot), antigen on plate, Fab 50 nM;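 note: blank spot per well as comparator with Hit at signal to blank ratio of 4 or more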
T18 construct: Bought Fc chimera; not shown: Fc of the bought chimera

[19] = target: T19, Recombinant Human DLL4 (R&D Systems Cat#1506-D4/CF) (human, UniProt Q9NR61 27-524); assay: ECL (MSD multi-spot), antigen on plate, Fab 50 nM;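 note: blank spot per well as comparator with Hit at signal to blank ratio of 4 or more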
T19 construct: Bought recombinant protein; also called delta-like protein 4

B3: Fab VH1-8_IGHD2-2*01_IGHJ6*01 & L12_IGKJ1*01 (Fab, V domains shown)
VH: QVQLVQSGAEVKKPGASVKVSCKASGYTFTSYDINWVRQATGQGLEWMGWMNPNSGNTGYAQKFQGRVTMTRNTSISTAYMELSSLRSEDTAVYYCARGGYCSSTSCYADYYYYYGMDVWGQGTTVTVSS
VL: not shown
- ECL signal [7]: 1970 ECL signal
- ECL signal [8]: 1880 ECL signal
- ECL signal [9]: 1530 ECL signal
- ECL signal [10]: 1760 ECL signal
- ECL signal [11]: 7740 ECL signal
- ECL signal [12]: 1750 ECL signal
- ECL signal [13]: 1750 ECL signal
- ECL signal [14]: 2150 ECL signal

B4: Fab VH1-46_IGHD6-6*01_IGHJ1*01_S102A_S103P_S104F & L6_IGKJ1*01_S30N (Fab, V domains shown)
VH: QVQLVQSGAEVKKPGASVKVSCKASGYTFTSYYMHWVRQAPGQGLEWMGIINPSGGSTSYAQKFQGRVTMTRDTSTSTVYMELSSLRSEDTAVYYCAREEYAPFSAEYFQHWGQGTLVTVSS
VL: EIVLTQSPATLSLSPGERATLSCRASQSVNSYLAWYQQKPGQAPRLLIYDASNRATGIPARFSGSGSGTDFTLTISSLEPEDFAVYYCQQRSNWPPWTFGQGTKVEIKR
notes: Fab
- ECL signal [15]: 271 ECL signal
- ECL signal [16]: 135 ECL signal
- ECL signal [17]: 294 ECL signal
- ECL signal [18]: 279 ECL signal
- ECL signal [19]: 37200 ECL signal

Results, then the binder that gave them:

- ECL signal [1]: 895 ECL signal
B1: Fab VH5-51_IGHD5-18*01>3_IGHJ4*01_G100R & V3-4_IGLJ1*01 (Fab, V domains shown)
VH: EVQLVQSGAEVKKPGESLKISCKGSGYSFTSYWIGWVRQMPGKGLEWMGIIYPGDSDTRYSPSFQGQVTISADKSISTAYLQWSSLKASDTAMYYCARRRYSYGYDYFDYWGQGTLVTVSS
VL: QTVVTQEPSFSVSPGGTVTLTCGLSSGSVSTSYYPSWYQQTPGQAPRTLIYSTNTRSSGVPDRFSGSILGNKAALTITGAQADDESDYYCVLYMGSGISYVFGTGTKVTVL
notes: It was expressed as a Fab: CH1 with tags from Plasmid A and lambda CL from Plasmid E; also called Fab No. 23

- ECL signal [2]: 351
- ECL signal [3]: 454
- ECL signal [4]: 690
- ECL signal [5]: 397
- ECL signal [6]: 508
B2: Fab VH6-1_IGHD3-3*01_IGHJ4*01 & V4-3_IGLJ4*01 (Fab, V domains shown)
VH: QVQLQQSGPGLVKPSQTLSLTCAISGDSVSSNSAAWNWIRQSPSRGLEWLGRTYYRSKWYNDYAVSVKSRITINPDTSKNQFSLQLNSVTPEDTAVYYCAREYYDFWSGYYTDYFDYWGQGTLVTVSS
VL: QPVLTQPTSLSASPGASARLTCTLRSGINLGSYRIFWYQQKPESPPRYLLSYYSDSSKHQGSGVPSRFSGSKDASSNAGILVISGLQSEDEADYYCMIWHSSASFVFGGGTQLIIL
notes: Tested as a Fab made in E. coli; also called IGHV6-1*01
